{"source": "patent US20190336427A1", "about": "“NOVEL PROTEIN TRANSDUCTION DOMAIN AND USE THEREOF” (BIOCELTRAN CO., LTD., priority 2016, published 2019)", "key": {"porcine skin [1]": {"tested_on": "porcine skin", "assay": "Skin penetration of cell-penetrating peptide-FGF2 mixture by tissue staining, Franz cells with porcine skin", "assay_type": "in vitro ADME", "conditions": "500 μg, 24 hours", "description": "For skin penetration analysis of FGF2 through tissue staining, Franz cells using the porcine skin were treated with equal amounts (500 μg) of FGF2, PEP1-FGF2 and a STeP-FGF2 mixture. After 24 hours, the porcine skin between the Franz cells was taken out, washed with distilled water and subjected to tissue staining. The porcine skin site exposed to donor cells was cut and then immobilized in 10% buffered formalin to produce a paraffin block, and tissues were sectioned to 7 μm using a microtome. Then, the tissues were mounted on a slide, paraffin was removed, the residue was hydrated and tissue fragments were blocked for 30 minutes. The blocked tissues were treated with […] (cell signaling, green) and reacted at 4° C. for 18 hours. On the following day, the resulting tissues were washed with PBST, treated with an Alexa Fluor 488 secondary antibody at room temperature for 2 hours and washed with PBST again. Then, the tissue fragments were dyed with a solution of a nuclear staining reagent (DAPI) diluted at 1/5000 in PBS in the absence of light for 10 minutes and washed with PBS three times. The tissue fragments were mounted and then analyzed with a confocal scanning laser microscope."}, "HaCaT cells": {"tested_on": "HaCaT cells", "assay": "Cytotoxicity of cell-penetrating peptides (WST, cell viability)", "conditions": "HaCaT cells, 2.5, 5 and 10 μM peptide, 24 hours", "description": "Cytotoxicity was evaluated to identify whether or not the peptides of the present invention could be harmlessly used to deliver polymers in vivo.\nHaCaT cells cultured in DMEM containing 10% FBS were seeded in a unit dose of 2.5×10^4 on a 96-well plate, cultured for 24 hours and washed with HBSS twice. Cell-penetrating peptides, PEP1 and STeP, were dissolved at different concentrations of 50 μM, 100 μM and 200 μM in D.W. and diluted in a medium such that the final concentrations reached 2.5 μM, 5 μM and 10 μM, and the cells were treated with the resulting peptides and then reacted for 24 hours at 37° C. in a 5% CO2 incubator. After culture, the supernatant was removed, a WST solution was diluted in a medium in a ratio of 1:9 and the cells were treated with the medium. After culturing for 3 hours, absorbance was measured at 450 nm, and cell viability was calculated for cells of a peptide non-treatment group and cells of a peptide treatment group."}, "[2]": {"target": "EGF receptors in cells (mouse fibroblasts, Balb/c 3T3 clone A31 cells) (mouse) (UniProt Q01279)", "assay": "cell-based or functional assay"}, "porcine skin [3]": {"tested_on": "porcine skin", "assay": "Skin penetration of cell-penetrating peptide-FITC mixture, Franz cells with porcine skin", "assay_type": "in vitro ADME", "conditions": "100 μM mixture, FITC:peptide molar ratio 1:0 and 1:2", "description": "Franz cells (diameter of 9 mm) were used in order to identify whether or not penetration of FITC into the skin as well as cells was improved under the condition of non-covalent bonding to STeP.\nFITC and cell-penetrating peptides (PEP1, STeP) dissolved in borax buffer (pH 8.0) were prepared. The FITC and cell-penetrating peptides (PEP1, STeP) were mixed in a molar ratio of 1:0 and 1:2, and reacted at 37° C. for 30 minutes, and the top of Franz cells were treated with 100 μM of the finally obtained cell-penetrating peptide-FITC mixture. The porcine skin was isolated and washed with PBS three times. After washing, the cryo mold was treated with an OCT embedding matrix (Cell Path Ltd., UK) and tissues were frozen at −70° C. The frozen tissues were cross-sectioned to a thickness of 7 μm at −20° C. using a cryotome (HM520, Germany) to produce fragment slides. To dye the nucleus of the skin cells, tissue fragments fixed to a slide glass were dyed with a solution of a nuclear staining reagent (DAPI) diluted at 1/5000 in PBS in the absence of light for 10 minutes and washed with PBS three times. The resulting cells were mounted and then analyzed with a confocal scanning laser microscope."}}, "note": "Ends that are not written are not given here.", "data": [{"substance": "FGF2: fibroblast growth factor-2, basic fibroblast growth factor", "values": [{"measurement": "skin penetration of FGF2 (delivery into porcine skin tissues)", "setting": "porcine skin [1]", "result": "not delivered into porcine skin tissues at all"}]}, {"substance": "KETWWETWWTEWSQPYGRKKRRQRRRC [STeP]", "values": [{"measurement": "cytotoxicity (cell viability)", "setting": "HaCaT cells", "result": "did not exhibit cytotoxicity"}]}, {"substance": "PEP1-EGF recombinant protein (from UniProt P01133 23-1207) (ligand)", "values": [{"measurement": "Cell proliferation activity (unit/mM), WST assay on Balb/c 3T3 clone A31 cells", "setting": "[2]", "result": "1.39e+07", "unit": "unit/mM"}]}, {"substance": "fluorescein isothiocyanate [FITC]", "values": [{"measurement": "skin penetration of FITC", "setting": "porcine skin [3]", "result": "present in the cornified layer of the porcine skin"}]}]}
